According to patent US20240174727A1, “LONG-ACTING NATRIURETIC PEPTIDES AND USES THEREOF” (Eli Lilly and Company, priority 2022, published 2024):
Changes are numbered by the printed parent chain. Numbered stars: 1 amine (or outer) side, 2 acyl side, 3 side chain; on linkers, the order of the positions; unused ones are H or OH. Bridge positions count the residues as written; N and C are the ends. Square brackets hold non-standard residues; d marks the D form. * marks the point of attachment. C20 diacid = O=C(O)CCCCCCCCCCCCCCCCCCC(=O)*; γGlu = O=C(O)[C@H](CCC(=O)[*:2])N[*:1]; 4Pal = N[C@@H](Cc1ccncc1)C(=O)O

T1: rat NPRA (rat, UniProt P18910 29-1057)
T1 sequence (looked up): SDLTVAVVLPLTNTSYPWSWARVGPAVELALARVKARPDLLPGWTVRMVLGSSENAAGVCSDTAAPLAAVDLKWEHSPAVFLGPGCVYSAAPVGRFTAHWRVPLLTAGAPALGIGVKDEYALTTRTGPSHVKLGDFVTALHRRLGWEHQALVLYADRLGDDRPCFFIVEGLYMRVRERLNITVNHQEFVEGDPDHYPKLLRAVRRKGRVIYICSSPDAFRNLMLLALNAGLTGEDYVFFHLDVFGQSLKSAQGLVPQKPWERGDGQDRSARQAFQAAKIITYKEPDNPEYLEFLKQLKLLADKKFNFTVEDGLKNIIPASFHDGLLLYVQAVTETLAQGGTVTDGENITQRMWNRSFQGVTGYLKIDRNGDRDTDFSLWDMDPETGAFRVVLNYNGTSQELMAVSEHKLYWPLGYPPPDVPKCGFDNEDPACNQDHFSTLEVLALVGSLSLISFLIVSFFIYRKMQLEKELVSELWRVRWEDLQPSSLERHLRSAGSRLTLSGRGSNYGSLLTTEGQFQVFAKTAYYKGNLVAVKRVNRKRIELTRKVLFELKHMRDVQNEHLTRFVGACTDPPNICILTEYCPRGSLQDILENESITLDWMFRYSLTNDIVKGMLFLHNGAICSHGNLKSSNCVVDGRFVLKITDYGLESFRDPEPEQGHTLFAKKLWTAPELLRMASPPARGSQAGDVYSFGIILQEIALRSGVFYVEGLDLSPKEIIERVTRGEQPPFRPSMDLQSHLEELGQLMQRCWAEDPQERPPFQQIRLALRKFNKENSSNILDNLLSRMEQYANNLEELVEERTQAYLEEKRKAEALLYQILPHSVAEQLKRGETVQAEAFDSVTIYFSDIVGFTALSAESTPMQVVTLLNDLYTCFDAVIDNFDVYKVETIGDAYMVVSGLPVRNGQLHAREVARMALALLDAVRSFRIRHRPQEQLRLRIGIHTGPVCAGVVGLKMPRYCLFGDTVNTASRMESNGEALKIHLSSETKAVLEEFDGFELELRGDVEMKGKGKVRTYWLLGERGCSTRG

T2: human NPRA (human, UniProt P16066 33-1061)
T2 sequence (looked up): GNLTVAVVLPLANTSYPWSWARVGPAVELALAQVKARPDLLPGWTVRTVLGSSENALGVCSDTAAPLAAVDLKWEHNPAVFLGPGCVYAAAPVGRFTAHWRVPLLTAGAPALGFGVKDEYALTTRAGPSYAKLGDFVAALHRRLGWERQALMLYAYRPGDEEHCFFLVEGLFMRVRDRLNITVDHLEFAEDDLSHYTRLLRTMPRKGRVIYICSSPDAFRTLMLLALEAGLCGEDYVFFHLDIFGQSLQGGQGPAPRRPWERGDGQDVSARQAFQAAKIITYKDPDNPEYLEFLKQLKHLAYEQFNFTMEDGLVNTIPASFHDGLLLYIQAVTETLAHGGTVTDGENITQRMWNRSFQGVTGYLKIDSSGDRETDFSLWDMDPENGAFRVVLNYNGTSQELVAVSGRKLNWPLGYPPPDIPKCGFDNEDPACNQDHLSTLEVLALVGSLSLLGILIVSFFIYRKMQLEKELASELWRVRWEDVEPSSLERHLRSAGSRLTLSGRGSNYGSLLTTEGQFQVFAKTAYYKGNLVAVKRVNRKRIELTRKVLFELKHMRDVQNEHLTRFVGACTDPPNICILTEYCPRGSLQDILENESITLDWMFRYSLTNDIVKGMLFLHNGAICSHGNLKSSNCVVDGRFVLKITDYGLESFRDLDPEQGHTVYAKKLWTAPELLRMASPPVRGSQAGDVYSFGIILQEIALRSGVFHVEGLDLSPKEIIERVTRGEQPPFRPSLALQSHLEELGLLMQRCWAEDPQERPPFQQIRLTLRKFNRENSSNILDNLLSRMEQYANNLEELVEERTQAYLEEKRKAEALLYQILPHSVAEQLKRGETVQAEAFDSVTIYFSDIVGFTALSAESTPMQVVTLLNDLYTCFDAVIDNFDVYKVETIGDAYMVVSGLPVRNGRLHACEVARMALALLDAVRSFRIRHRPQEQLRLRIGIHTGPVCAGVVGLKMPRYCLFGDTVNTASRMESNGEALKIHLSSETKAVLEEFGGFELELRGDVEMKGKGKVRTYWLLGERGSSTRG

T3: rat NPRA (rat, UniProt P18910 29-1057)
T3 sequence (looked up): T1 sequence (looked up)

T4: human NPRA (human, UniProt P16066 33-1061)
T4 sequence (looked up): T2 sequence (looked up)

B1: Example 18 (peptide)
peptide: {C20 diacid}-[γGlu]EKEKEKGSHRRSSCFGGRIDRIGAQSGLGCPSFRH-NH2
modifications: disulfide 15-31
SMILES: CC[C@H](C)[C@@H]1NC(=O)[C@H](CCCNC(=N)N)NC(=O)[C@H](CC(=O)O)NC(=O)[C@H]([C@@H](C)CC)NC(=O)[C@H](CCCNC(=N)N)NC(=O)CNC(=O)CNC(=O)[C@H](Cc2ccccc2)NC(=O)[C@@H](NC(=O)[C@H](CO)NC(=O)[C@H](CO)NC(=O)[C@H](CCCNC(=N)N)NC(=O)[C@H](CCCNC(=N)N)NC(=O)[C@H](Cc2c[nH]cn2)NC(=O)[C@H](CO)NC(=O)CNC(=O)[C@H](CCCCN)NC(=O)[C@H](CCC(=O)O)NC(=O)[C@H](CCCCN)NC(=O)[C@H](CCC(=O)O)NC(=O)[C@H](CCCCN)NC(=O)[C@H](CCC(=O)O)NC(=O)CC[C@H](NC(=O)CCCCCCCCCCCCCCCCCCC(=O)O)C(=O)O)CSSC[C@@H](C(=O)N2CCC[C@H]2C(=O)N[C@@H](CO)C(=O)N[C@@H](Cc2ccccc2)C(=O)N[C@@H](CCCNC(=N)N)C(=O)N[C@@H](Cc2c[nH]cn2)C(N)=O)NC(=O)CNC(=O)[C@H](CC(C)C)NC(=O)CNC(=O)[C@H](CO)NC(=O)[C@H](CCC(N)=O)NC(=O)[C@H](C)NC(=O)CNC1=O
B2: Example 20 (peptide)
peptide: {C20 diacid}-[γGlu]EKEKEKGS[4Pal]RRSSCFGGRIDRIGAQSGLGCPSFR[4Pal]-NH2
modifications: disulfide 15-31
SMILES: CC[C@H](C)[C@@H]1NC(=O)[C@H](CCCNC(=N)N)NC(=O)[C@H](CC(=O)O)NC(=O)[C@H]([C@@H](C)CC)NC(=O)[C@H](CCCNC(=N)N)NC(=O)CNC(=O)CNC(=O)[C@H](Cc2ccccc2)NC(=O)[C@@H](NC(=O)[C@H](CO)NC(=O)[C@H](CO)NC(=O)[C@H](CCCNC(=N)N)NC(=O)[C@H](CCCNC(=N)N)NC(=O)[C@H](Cc2ccncc2)NC(=O)[C@H](CO)NC(=O)CNC(=O)[C@H](CCCCN)NC(=O)[C@H](CCC(=O)O)NC(=O)[C@H](CCCCN)NC(=O)[C@H](CCC(=O)O)NC(=O)[C@H](CCCCN)NC(=O)[C@H](CCC(=O)O)NC(=O)CC[C@H](NC(=O)CCCCCCCCCCCCCCCCCCC(=O)O)C(=O)O)CSSC[C@@H](C(=O)N2CCC[C@H]2C(=O)N[C@@H](CO)C(=O)N[C@@H](Cc2ccccc2)C(=O)N[C@@H](CCCNC(=N)N)C(=O)N[C@@H](Cc2ccncc2)C(N)=O)NC(=O)CNC(=O)[C@H](CC(C)C)NC(=O)CNC(=O)[C@H](CO)NC(=O)[C@H](CCC(N)=O)NC(=O)[C@H](C)NC(=O)CNC1=O
B3: Example 16 (peptide)
peptide: {C20 diacid}-[γGlu]EKEKEKGSHRRSSCFHGRIDRIHAQSGLGCNSFRH-NH2
modifications: disulfide 15-31
SMILES: CC[C@H](C)[C@@H]1NC(=O)[C@H](CCCNC(=N)N)NC(=O)[C@H](CC(=O)O)NC(=O)[C@H]([C@@H](C)CC)NC(=O)[C@H](CCCNC(=N)N)NC(=O)CNC(=O)[C@H](Cc2c[nH]cn2)NC(=O)[C@H](Cc2ccccc2)NC(=O)[C@@H](NC(=O)[C@H](CO)NC(=O)[C@H](CO)NC(=O)[C@H](CCCNC(=N)N)NC(=O)[C@H](CCCNC(=N)N)NC(=O)[C@H](Cc2c[nH]cn2)NC(=O)[C@H](CO)NC(=O)CNC(=O)[C@H](CCCCN)NC(=O)[C@H](CCC(=O)O)NC(=O)[C@H](CCCCN)NC(=O)[C@H](CCC(=O)O)NC(=O)[C@H](CCCCN)NC(=O)[C@H](CCC(=O)O)NC(=O)CC[C@H](NC(=O)CCCCCCCCCCCCCCCCCCC(=O)O)C(=O)O)CSSC[C@@H](C(=O)N[C@@H](CC(N)=O)C(=O)N[C@@H](CO)C(=O)N[C@@H](Cc2ccccc2)C(=O)N[C@@H](CCCNC(=N)N)C(=O)N[C@@H](Cc2c[nH]cn2)C(N)=O)NC(=O)CNC(=O)[C@H](CC(C)C)NC(=O)CNC(=O)[C@H](CO)NC(=O)[C@H](CCC(N)=O)NC(=O)[C@H](C)NC(=O)[C@H](Cc2c[nH]cn2)NC1=O
B4: HOOC-(CH2)18-CO-(γGlu)-EKEKEKG-(AEEA)8-EK-βAla-RSS[CFGKRIDRIGHYSGLGC]PSFRHGSPSSGAPPPS-NH2 (peptide)
peptide: EKXRSSCFGKRIDRIGHYSGLGCPSFRHGSPSSGAPPPS
modifications: N-terminus acylated with HOOC-(CH2)18-CO-(γGlu)-; (AEEA)8 after EKEKEKG; βAla; thioacetal linkage between the two bracketed Cys; C-terminal amide
B5: HOOC-(CH2)18-CO-(γGlu)-EKEKEKG-PEG24-S-4Pal-RRSS[CFGKRIDRIGHQSGLGC]PSFRHGGKSSGAPPPS-NH2 (peptide)
peptide: SXRRSSCFGKRIDRIGHQSGLGCPSFRHGGKSSGAPPPS
modifications: N-terminus acylated with HOOC-(CH2)18-CO-(γGlu)-; PEG24 after EKEKEKG; 4Pal; thioacetal linkage between the two bracketed Cys; C-terminal amide
B6: HOOC-(CH2)18-CO-(γGlu)-EKEKEKG-(AEEA)6-S-4Pal-RRSS[CFGKRIDRIGHYSGLGC]PSFRHGGKSSGAPPPS-NH2 (peptide)
peptide: B5 peptide with Q18Y
modifications: N-terminus acylated with HOOC-(CH2)18-CO-(γGlu)-; (AEEA)6 after EKEKEKG; 4Pal; thioacetal linkage between the two bracketed Cys; C-terminal amide
B7: HOOC-(CH2)18-CO-(γGlu)-EKEKEKG-PEG24-EK-βAla-RSS[CFGKRIDRIGHYSGLGC]PSFRHGSPSSGAPPPS-NH2 (peptide)
peptide: B4 peptide
modifications: N-terminus acylated with HOOC-(CH2)18-CO-(γGlu)-; PEG24 after EKEKEKG; βAla; thioacetal linkage between the two bracketed Cys; C-terminal amide

Molecular target: T1, rat NPRA
Experiment: cell-based or functional assay

Row | Binder | cGMP Assay (EC50, pM) w/BSA | cGMP Assay (EC50, pM) w/Casein
1 | B1 | 43200 pM | 693 pM
2 | B2 | 104000 pM | 1390 pM
3 | B3 | 480000 pM | 4070 pM

Molecular target: T2, human NPRA
Experiment: cell-based or functional assay

Row | Binder | cGMP Assay (EC50, pM) w/BSA | cGMP Assay (EC50, pM) w/Casein
4 | B1 | 17100 pM | 460 pM
5 | B2 | 129000 pM | 2900 pM
6 | B3 | 54700 pM | 807 pM

Molecular target: T3, rat NPRA
Experiment: cell-based or functional assay

Row | Binder | cGMP Assay (EC50, pM) w/Casein, rNPRA | cGMP Assay (EC50, pM) w/BSA, rNPRA
7 | B4 | 11200 pM | 
8 | B5 | 16800 pM | 276000 pM
9 | B6 | 2630 pM | 312000 pM
10 | B7 | 9630 pM | 187000 pM

Molecular target: T4, human NPRA
Experiment: cell-based or functional assay

Row | Binder | cGMP Assay (EC50, pM) w/Casein, hNPRA | cGMP Assay (EC50, pM) w/BSA, hNPRA
11 | B4 | 497 pM | 
12 | B5 | 488 pM | 2560 pM
13 | B6 | 527 pM | 4470 pM
14 | B7 | 741 pM | 4330 pM
